Where a chain is given by its changes, count along the chain named. Where two headings read alike, the source gives them in different places.
B1: ht27WT (TCR, V domains shown)
V domain 1: RGEDVEQSLFLSVREGDSSVINCTYTDSSSTYLYWYKQEPGAGLQLLTYIFSNMDMKQDQRLTVLLNKKDKHLSLRIADTQTGDSAIYFCAGSGGGTDKLIFGTGTRLQVFP
V domain 2: GAVVSQHPSWVICKSGTSVKIECRSLDFQATTMFWYRQFPKQSLMLMATSNEGSKATYEQGVEKDKFLINHASLTLSTLTVTSAHPEDSSFYICSAREPGQGPYEQYFGPGTRLTVTE
B2: A1A2-M01-614 (TCR, V domains shown)
Valpha: GEDVEQSLFLSVREGDSSVINCTYSDMLSTYLYWYKQEPGAGLQLLTYIFIFQAMKQDQRLTVLLNKKDKHLSLRIADTQTGDSAIYFCAGSGGGTDKLIFGTGTRLQVFP
Vbeta: GAVVSQHPSWVICKSGTSVKIECRSLDFEATTMFWYRQFPKQSLMLMATTDYGSKATYEQGVEKDKFLINHASLTLSTLTVTSAHPEDSSFYICSAREPGQGPWEQYFGPGTRLTVT
B3: A1A2-M01-625 (TCR, V domains shown)
Valpha: B2 Valpha with S25T, M27S, L28S, S29M, I51A, Q53E, A54S
Vbeta: B2 Vbeta
B4: A1A2-M01-617 (TCR, V domains shown)
Valpha: B2 Valpha with S25P, L28F, I51A, Q53M, A54Q
Vbeta: B2 Vbeta with T50S, D51N, Y52E, S54D, K55Q
B5: A1A2-M01-620 (TCR, V domains shown)
Valpha: B2 Valpha with S25T, M27S, L28S, S29Q, I51S, F52N, Q53M, A54D
Vbeta: B2 Vbeta with G102A, P103W, W104S, E105D
B6: A1A2-M01-622 (TCR, V domains shown)
Valpha: B2 Valpha with S25T, M27S, L28S, I51A, Q53E, A54S
Vbeta: B2 Vbeta
B7: A1A2-M01-623 (TCR, V domains shown)
Valpha: B2 Valpha with S25T, M27S, L28S, S29Q
Vbeta: B2 Vbeta
B8: A1A2-M01-616 (TCR, V domains shown)
Valpha: B2 Valpha with S25T, M27S, L28S, S29Q, I51A, Q53M, A54Q
Vbeta: B2 Vbeta
B9: A1A2-M01-624 (TCR, V domains shown)
Valpha: B2 Valpha with S25Q, D26Y, M27G, L28M, I51S, Q53M, A54D
Vbeta: B2 Vbeta
B10: A1A2-M01-621 (TCR, V domains shown)
Valpha: B2 Valpha with S25T, M27S, L28E, S29F, I51A, Q53E, A54S
Vbeta: B2 Vbeta

Key:
[1] = target: T1, MAGE-A1 target antigen peptide … presented by HLA-A*02:01 on cells (human); assay: cell-based or functional assay
[2] = target: T1, MAGE-A1 target antigen peptide … …; assay: cell-based or functional assay; remark: listed apart in the source
[3] = target: T2, MAGE-A1 peptide on HLA-A*02:01 (human); assay: KD-SPR estimated from Dextramer MFI by the formula calibrated on gp100 TCRs, not measured; unit inferred; full-length, on cells
T2 peptide: KVLEYVIKV

[4] = target: T2, MAGE-A1 peptide on HLA-A*02:01; assay: JKR9 reporter + peptide-loaded T2, 16 h; full-length, on cells
[5] = target: MAGE-A1 Dextramer (human); assay: KD-SPR estimated from Dextramer staining MFI by the linear formula of Figure 6; not measured by SPR
[6] = target: T2, MAGE-A1 peptide on HLA-A*02:01; assay: MAGE-A1 Dextramer gradient on transduced JKR9; unit inferred; full-length, on cells
[7] = target: MAGE-A1 Dextramer (human); assay: MAGE-A1 Dextramer gradient staining (MFI) of cells expressing the TCR, flow cytometry
[8] = target: MAGE-A1 target antigen peptide … presented by HLA-A*02:01 on cells (human); assay: cell-based or functional assay; remark: listed apart in the source

| Binder | EC50 Value (M), JKR9 reporter activation by peptide-loaded T2 cells [1] | EC50 Value (M), JKR9 reporter activation by peptide-loaded T2 cells [2] | Kd [3] | EC50 of peptide [4] | Kd [5] | EC50 of Dextramer staining [6] | EC50 [7] | EC50 Value (M), JKR9 reporter activation by peptide-loaded T2 cells [8] |
| --- | --- | --- | --- | --- | --- | --- | --- | --- |
| B1 | 2.31e-06 M | 1.67e-05 M | – | – | – | – | – | – |
| B2 | – | – | ~0.208 nM | 29.4 nM | 0.208 nM | 0.163 nM | 0.163 nM | 2.94e-08 M |
| B3 | – | – | ~0.0222 nM | 35.1 nM | 0.0222 nM | 0.0852 nM | 0.0852 nM | 3.52e-08 M |
| B4 | – | – | ~0.0432 nM | 26.1 nM | 0.0432 nM | 0.103 nM | 0.103 nM | 2.61e-08 M |
| B5 | – | – | ~0.524 nM | 25 nM | 0.524 nM | 0.212 nM | 0.212 nM | 2.5e-08 M |
| B6 | – | – | ~0.028 nM | 17.6 nM | 0.028 nM | 0.0911 nM | 0.0911 nM | 1.76e-08 M |
| B7 | – | – | ~0.337 nM | 30.6 nM | 0.337 nM | 0.187 nM | 0.187 nM | 3.06e-08 M |
| B8 | – | – | ~0.0186 nM | 32.3 nM | 0.0186 nM | 0.0808 nM | 0.0808 nM | 3.23e-08 M |
| B9 | – | – | ~0.0651 nM | 25.9 nM | 0.0651 nM | 0.116 nM | 0.116 nM | 2.59e-08 M |
| B10 | – | – | ~0.0747 nM | 35.7 nM | 0.0747 nM | 0.121 nM | 0.121 nM | 3.57e-08 M |

— EP4534554A1 (Corregene Biotechnology Co., Ltd., dated 2025)
